Laboratory results from patent US20220025010A1 (ANTAG THERAPEUTICS, published 2022).
Where no end group is shown, it is not given here. The star is where a group is joined. C16 diacid = O=C(O)CCCCCCCCCCCCCCC(=O)*

T1: human GIP receptor (human, UniProt P48546 22-466)
T1 sequence (looked up): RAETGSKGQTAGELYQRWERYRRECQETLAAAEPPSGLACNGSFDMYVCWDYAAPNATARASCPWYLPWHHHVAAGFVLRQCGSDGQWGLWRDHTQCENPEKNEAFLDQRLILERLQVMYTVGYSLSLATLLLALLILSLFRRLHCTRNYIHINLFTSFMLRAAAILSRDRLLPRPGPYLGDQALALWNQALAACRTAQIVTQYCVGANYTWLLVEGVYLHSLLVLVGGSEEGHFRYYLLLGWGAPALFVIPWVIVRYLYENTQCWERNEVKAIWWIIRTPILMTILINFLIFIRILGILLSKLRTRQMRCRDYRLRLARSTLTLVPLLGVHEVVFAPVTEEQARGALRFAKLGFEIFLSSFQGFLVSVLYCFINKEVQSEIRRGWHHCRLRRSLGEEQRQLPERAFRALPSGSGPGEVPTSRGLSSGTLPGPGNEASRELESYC


Target: T1, human GIP receptor
Assay: cell-based or functional assay

Binder	CisBio cAMP agonism % Efficacy [%]	CisBio cAMP antagonism % inhib [%]	CisBio cAMP antagonism IC50 [µM]	CisBio cAMP antagonism pIC50	DiscoveRx cAMP agonism Emax	DiscoveRx cAMP antagonism IC50 [µM]	DiscoveRx cAMP antagonism log IC50 [log M]
PGTFISDYSIAMDRIKQQDFVNWLLAQR (HELM PEPTIDE1{P.G.T.F.I.S.D.Y.S.I.A.M.D.R.I.K.Q.Q.D.F.V.N.W.L.L.A.Q.R}|PEPTIDE2{[O=C(O)CCCCCCCCCCCCCCC(=O)[*:2]].[gGlu]}$PEPTIDE1,PEPTIDE2,16:R3-2:R2$$$V2.0; N-terminus assumed; SMILES CC[C@H](C)[C@H](NC(=O)[C@H](CO)NC(=O)[C@H](Cc1ccc(O)cc1)NC(=O)[C@H](CC(=O)O)NC(=O)[C@H](CO)NC(=O)[C@@H](NC(=O)[C@H](Cc1ccccc1)NC(=O)[C@@H](NC(=O)CNC(=O)[C@@H]1CCCN1)[C@@H](C)O)[C@@H](C)CC)C(=O)N[C@@H](C)C(=O)N[C@@H](CCSC)C(=O)N[C@@H](CC(=O)O)C(=O)N[C@@H](CCCNC(=N)N)C(=O)N[C@H](C(=O)N[C@@H](CCCCNC(=O)CC[C@H](NC(=O)CCCCCCCCCCCCCCC(=O)O)C(=O)O)C(=O)N[C@@H](CCC(N)=O)C(=O)N[C@@H](CCC(N)=O)C(=O)N[C@@H](CC(=O)O)C(=O)N[C@@H](Cc1ccccc1)C(=O)N[C@H](C(=O)N[C@@H](CC(N)=O)C(=O)N[C@@H](Cc1c[nH]c2ccccc12)C(=O)N[C@@H](CC(C)C)C(=O)N[C@@H](CC(C)C)C(=O)N[C@@H](C)C(=O)N[C@@H](CCC(N)=O)C(=O)N[C@@H](CCCNC(=N)N)C(=O)O)C(C)C)[C@@H](C)CC) [AT267]	4	52	0.736	6.1	16	0.123	-6.9
SGTFISDYSIAMDRIK(C16 diacid)QQDFVNWLLAQR-OH (N-terminus assumed; SMILES CC[C@H](C)[C@H](NC(=O)[C@H](CO)NC(=O)[C@H](Cc1ccc(O)cc1)NC(=O)[C@H](CC(=O)O)NC(=O)[C@H](CO)NC(=O)[C@@H](NC(=O)[C@H](Cc1ccccc1)NC(=O)[C@@H](NC(=O)CNC(=O)[C@@H](N)CO)[C@@H](C)O)[C@@H](C)CC)C(=O)N[C@@H](C)C(=O)N[C@@H](CCSC)C(=O)N[C@@H](CC(=O)O)C(=O)N[C@@H](CCCNC(=N)N)C(=O)N[C@H](C(=O)N[C@@H](CCCCNC(=O)CCCCCCCCCCCCCCC(=O)O)C(=O)N[C@@H](CCC(N)=O)C(=O)N[C@@H](CCC(N)=O)C(=O)N[C@@H](CC(=O)O)C(=O)N[C@@H](Cc1ccccc1)C(=O)N[C@H](C(=O)N[C@@H](CC(N)=O)C(=O)N[C@@H](Cc1c[nH]c2ccccc12)C(=O)N[C@@H](CC(C)C)C(=O)N[C@@H](CC(C)C)C(=O)N[C@@H](C)C(=O)N[C@@H](CCC(N)=O)C(=O)N[C@@H](CCCNC(=N)N)C(=O)O)C(C)C)[C@@H](C)CC) [AT259]	9	72	0.0584	7.2	20	0.019	-7.7
PGTFISDYSIAMDRIK(C16 diacid)QQDFVNWLLAQR-OH (N-terminus assumed; SMILES CC[C@H](C)[C@H](NC(=O)[C@H](CO)NC(=O)[C@H](Cc1ccc(O)cc1)NC(=O)[C@H](CC(=O)O)NC(=O)[C@H](CO)NC(=O)[C@@H](NC(=O)[C@H](Cc1ccccc1)NC(=O)[C@@H](NC(=O)CNC(=O)[C@@H]1CCCN1)[C@@H](C)O)[C@@H](C)CC)C(=O)N[C@@H](C)C(=O)N[C@@H](CCSC)C(=O)N[C@@H](CC(=O)O)C(=O)N[C@@H](CCCNC(=N)N)C(=O)N[C@H](C(=O)N[C@@H](CCCCNC(=O)CCCCCCCCCCCCCCC(=O)O)C(=O)N[C@@H](CCC(N)=O)C(=O)N[C@@H](CCC(N)=O)C(=O)N[C@@H](CC(=O)O)C(=O)N[C@@H](Cc1ccccc1)C(=O)N[C@H](C(=O)N[C@@H](CC(N)=O)C(=O)N[C@@H](Cc1c[nH]c2ccccc12)C(=O)N[C@@H](CC(C)C)C(=O)N[C@@H](CC(C)C)C(=O)N[C@@H](C)C(=O)N[C@@H](CCC(N)=O)C(=O)N[C@@H](CCCNC(=N)N)C(=O)O)C(C)C)[C@@H](C)CC) [AT261]	0	62	0.2	6.7	24	0.046	-7.3
GGTFISDYSIAMDRIKQQDFVNWLLAQR (HELM PEPTIDE1{G.G.T.F.I.S.D.Y.S.I.A.M.D.R.I.K.Q.Q.D.F.V.N.W.L.L.A.Q.R}|PEPTIDE2{[O=C(O)CCCCCCCCCCCCCCC(=O)[*:2]].[gGlu].[O=C(COCCOCCN[*:1])[*:2]]}$PEPTIDE1,PEPTIDE2,16:R3-3:R2$$$V2.0; N-terminus assumed; SMILES CC[C@H](C)[C@H](NC(=O)[C@H](CO)NC(=O)[C@H](Cc1ccc(O)cc1)NC(=O)[C@H](CC(=O)O)NC(=O)[C@H](CO)NC(=O)[C@@H](NC(=O)[C@H](Cc1ccccc1)NC(=O)[C@@H](NC(=O)CNC(=O)CN)[C@@H](C)O)[C@@H](C)CC)C(=O)N[C@@H](C)C(=O)N[C@@H](CCSC)C(=O)N[C@@H](CC(=O)O)C(=O)N[C@@H](CCCNC(=N)N)C(=O)N[C@H](C(=O)N[C@@H](CCCCNC(=O)COCCOCCNC(=O)CC[C@H](NC(=O)CCCCCCCCCCCCCCC(=O)O)C(=O)O)C(=O)N[C@@H](CCC(N)=O)C(=O)N[C@@H](CCC(N)=O)C(=O)N[C@@H](CC(=O)O)C(=O)N[C@@H](Cc1ccccc1)C(=O)N[C@H](C(=O)N[C@@H](CC(N)=O)C(=O)N[C@@H](Cc1c[nH]c2ccccc12)C(=O)N[C@@H](CC(C)C)C(=O)N[C@@H](CC(C)C)C(=O)N[C@@H](C)C(=O)N[C@@H](CCC(N)=O)C(=O)N[C@@H](CCCNC(=N)N)C(=O)O)C(C)C)[C@@H](C)CC) [AT269]	0				12	0.091	-7
